The text below walks through data of US20120244578A1 (Amgen, published 2012).

One test has as its target T1, mouse FcRn (mouse, UniProt Q61559 22-297; P01887 21-119, limits assumed).
T1 sequence (looked up): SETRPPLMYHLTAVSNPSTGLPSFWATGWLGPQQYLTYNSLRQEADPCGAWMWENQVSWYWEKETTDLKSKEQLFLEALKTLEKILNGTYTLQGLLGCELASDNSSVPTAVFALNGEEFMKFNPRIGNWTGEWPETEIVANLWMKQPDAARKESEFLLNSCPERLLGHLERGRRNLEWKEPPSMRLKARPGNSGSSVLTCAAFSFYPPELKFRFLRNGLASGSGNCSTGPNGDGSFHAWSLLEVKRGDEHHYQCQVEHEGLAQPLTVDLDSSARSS
T1 sequence (b2m, looked up): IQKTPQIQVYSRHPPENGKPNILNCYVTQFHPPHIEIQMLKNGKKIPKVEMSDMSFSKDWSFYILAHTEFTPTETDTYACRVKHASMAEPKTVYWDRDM
In words: BIAcore solution competition (FIG. 6). As for the experimental part: (§1) BIAcore analysis of human and mouse FcRn binding to Fc mutant #1 (Fc K392D-K409D, dimer), #2 (Fc K392D-K409D-Y349T, monomeric SEC profile) and #6 (Fc K392D-K409D-Y349T, monomeric SEC profile) using a BIAcore3000 instrument. CHO cell produced huFc was immobilized on follow cell 2 (Fc2) on a CM5 chip. Fc1 was used as background control. 2 nM human FcRn were incubated with 1, 10, 100 nM of indicated Fc variants for one hour before injected to the CHO huFc surface. Reduced binding of FcRn to the immobilized CHO huFc indicates binding of FcRn to the Fc variants in solution. 2 nM mouse FcRn were incubated with 0.1, 1, 10 nM of Fc variants for one hour before injected to the CHO huFc surface.
A general note: In SPR one partner is held on a chip, and binding of the other changes the refractive index at the surface.

The target in the next test is T2, human FcRn (human, UniProt P55899 24-297; P61769 21-119, limits assumed).
T2 construct: also called neonatal Fc-receptor
T2 sequence (P55899 24-297 limits assumed, chain 1 of 2): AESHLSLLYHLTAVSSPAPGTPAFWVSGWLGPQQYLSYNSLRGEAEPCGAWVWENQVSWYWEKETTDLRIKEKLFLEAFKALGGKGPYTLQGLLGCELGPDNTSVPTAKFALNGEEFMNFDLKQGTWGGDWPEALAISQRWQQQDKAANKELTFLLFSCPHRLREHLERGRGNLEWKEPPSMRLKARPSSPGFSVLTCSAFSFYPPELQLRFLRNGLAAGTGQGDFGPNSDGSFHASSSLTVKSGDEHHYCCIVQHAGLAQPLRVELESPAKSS
T2 sequence (P61769 21-119 limits assumed, chain 2 of 2): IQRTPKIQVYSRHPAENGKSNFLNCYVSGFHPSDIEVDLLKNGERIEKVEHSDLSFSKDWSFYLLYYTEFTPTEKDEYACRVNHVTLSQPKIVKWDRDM
In words: BIAcore solution competition (FIG. 6). As for the experimental part: as §1

B1: hu IgG1 Fc K392D K409D Y349T (construct 2 of Table 2) (other, human, UniProt P01857-1 114-330, looked up, name in EU numbering)
chain: APELLGGPSVFLFPPKPKDTLMISRTPEVTCVVVDVSHEDPEVKFNWYVDGVEVHNAKTKPREEQYNSTYRVVSVLTVLHQDWLNGKEYKCKVSNKALPAPIEKTISKAKGQPREPQVTTLPPSRDELTKNQVSLTCLVKGFYPSDIAVEWESNGQPENNYDTTPPVLDSDGSFFLYSDLTVDKSRWQQGNVFSCSVMHEALHNHYTQKSLSLSPGK
notes: domain: Fc; Monomer by SEC and AUC; also called Fc mutant #2; Monomer Fc
As to B1, the binding result in the test with mouse FcRn and in the test with human FcRn was “binds” each time.
